According to a protein production outcome set (Wang et al. 2014):

Experiment: label from the status in PepcDB records
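Note: failed if final PepcDB status was selected cloned or expressed and not failed if soluble or beyond.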

Row | Sequence | protein production
1 | MLGHNKISVIIPAYNEERRIGNVLKGIPDFVDEVIVVDDGSSDGTSKVAMELGATVIRLNKNSGKGAAMREGLKISTGDIIVFMDADGQHNPKEIYRLVKPIVEGRADLVIGRRIITRGKRPMSRKISNFITTRLITLKTRKKILDTQSGFRAIRREFVPVIESDRYEVETEVLIKAIKKGARILEVPISTRYDVETGHFKMIDIFRFLFALIKYLEHHHHHH | failed
2 | MPTCAPAMVTTLYETPEHACLMFSDLVDDHDDQSVQTNQFLVVDHGHGALIDPGGNMTYNALYLAMNQYFPPKQLDYVLASHADPDIVASAGRWLTSSNCNILISRVWERFLPHFCNVGKTDGRILPIPDTGMAIPIGQSHLLAVPAHFLHSEGNFQFYDPVSRILFSGDLGASMVHAEIAAAPVEDFDAHIPLMAPFHRRYMSGNRVCRLWAEMVRGLEIEWIVPQHGRAFHGPAMVRRFIDWVETLTCGIDLMTQETFRLPALPRVAAGAPLRTPQP | failed
3 | MTEHSSDYYQRLVDESALEEFLTREIGPAETFDVARHEQGHSNETLFVTWGDRELVVRRPPPGQTAETAHDVLREYRVIDALQDTAVPVPPTVTACDDQTIIGSDFYVMARVEGTVIRDDEPARFGSDDARAAVGTELVDTLAAIHEVDPTAVGLSDLGRADGYAKRQVARWGKQLAWAFERTAESRTIPELERVGSWLQDECPDDHPKTLVHGDYKLDNVMFGPGDDPELAAVFDWEMATLGDPRADLGWLLSYWRDAKDPEPEIPDLAMEFIEAPGYLTRTDLVDRWEAQTGLTFEHERFYRTLAVYKLAALGEMFYRRYLEGNADDPFYPLMEDRVPALANRAVRIIEGDEPL | failed
4 | MTHERGYDLASQVLNICNVHHKKLFCHITYRHLLVLSSDDNGCVILKKVITIADDFLKDEFLDLIAQHAHSLSMHDLGISLIQHVLELDFTKKTTQDDKRLHELMAEFDEVLSTSVTADVDKLHKLASKLMLDSDLFFEFVITRRGSLMIQIILGKSEEVDQVILAGVKQRFIDVTTNFYGYRIMIQTIKVFKKRGDLKVYDQILRLIGVHALYLTKDPDMGNKTFQHAINLHHQDCTTFIACGLQSHYIELSFLKHGSKIVEMLIDDRISMVPLVLLMMEIVKCDEDTLVRLATDEYGNNILKKFLALAKEHKEDFFGDLVDKLNPLLDSLRGTLGENIVAIIDSETEMVKDRIVSQGNN | failed
5 | MAKVTERYDVTWEEMRDKMRKWREENSRNSEQIMEVGEELINDYASKLGDDIWIIYEQVMIAALDYGRDDLALFCLQELRRQFPGSHRVKRLTGMRFEAMERYDDAIQLYDRILQEDPTNTAARKRKIAIRKAQGKTVEAIRELNEYLEQFVGDQEAWHELAELYINEHDYAKAAFCLEELMMTNPHNHLYCQQYAEVKYTQGGLENLELSRKYFAQALKLNNRNMRALFGLYMSASHIASNPKASAKMKKDNIKYASWAANQINRAYQFAGRSKKETKYSLKAVEDMLETLQITQS | failed
6 | MSVFTTKVQSIGPEAELFKEEKMVILFGKDAPDALADYCYNIEVQPVTEAITDKQTLVIDEQTYQITAVGEVVLTNLDTLGHITIKFDGATTPELPGTLYVEEKAIPEITVGTTIT | failed
7 | MDHLKHLQQLQNIERIVLSGIVLANHKIEEVHSVLEPSDFYYPPNGLFFEIALKLHEEDCPIDENFIRQKMPKDKQIKEEDLVAIFAASPIDNIEAYVEEIKNASIKRKLFGLANTIREQALESAQKSSDILGAVEREVYALLNGSTIEGFRNIKEVLESAMDLITENQRKGSLEVTGIPTGFVQLDNYTSGFNKGSLVIIGARPSMGKTSLMMNMVLSALNDDRGVAVFSLEMSAEQLALRALSDLTSINMHDLESGRLDDDQWENLAKCFDHLSQKKLFFYDKSYVRIEQIRLQLRKLKSQHKELGIAFIDYLQLMSGSKATKERHEQIAEISRELKTLARELEIPIIALVQLNRSLENRDDKRPILSDIKDSGGIEQDADIVLFLYRGYIYQMRAEDNKIDKLKKEGKIEEAQELYLKVNEERRIHKQNGSIEEAEIIVAKNRNGATGTVYTRFNAPFTRYEDMPIDSHLEEGQETKVDYDIVTT | not failed
8 | MAYNPKILQKPKEGEEITIKDNKLHVPNHPIIPFIEGDGIGSDITPAMIKVVDSAVQKAYKGEKKIAWYEVFVGEKCYQKFKDYKELSPEEQWLLPDTIEAINHYKVSIKGPLTTPIGEGFRSLNVALRQKMDLYVCLRPVRWYGSPSPVKEPQKVDMVIFRENSEDIYAGIEWQEGSAEAKKLIHFLQNELKVKKIRFPESSGIGVKPISKEGTERLVRKAIEYAIDNDKPSVTFVHKGNIMKYTEGAFMKWGYALAQKEFNAQVIDKGPWCSLKNPKNGKEIIIKDMIADAFLQQILLRPSEYSVIATMNLNGDYISDALAAMVGGIGIAPGANLNDTVGMFEATHGTAPKYAGLDKVNPGSIILSAEMMLRHMGWVEAADLIVSAMEKAIKSKKVTYDFARLMDGAKEVKCSEFASVMIENM | failed
9 | MSSPAILLFDIDGVIRDVAGSYRRALQVTVEHYSGWQPMAADIDALKAEGCWNNDWDASLELLRRHENDVPSRSELIEVFSGFYFGGDPEGDPAEWQGFIGDEPLLVTRAFFDELTRHDIRWGFVSGAEPPSARYVLQQRLDLKDPPLIAMGDAPDKPDPTGLIRLAEQMAAGEVPHWIAYIGDTVADVQTVLNARKRRPELPWRSLAVAPPHVTDVSTYHRQLQDAGADRIVGATRELLPMLLDELA | failed
10 | MKAAPARSAAYDNPYAKRLFLIIDSLPQMQRALAMTLSSFGANTVEYASKASDALAKMAKYEFDVVLCDYDLGNGYDGLYLFEEIRERNLLKQSCVFMIVTGERRAQRVISAAELAPDDYLLKPFTGEVLRDRLERAMRKREAFRLVDENILRHDYLSAIETCGRKIEENGEFALDFMRLKGSLALKINDFDTARDAYMQVLRLRPATWAKMGLAKSLAGLKSHDEARLLFEAVLADNNQVMEAYDWLARLYRGNHDLGRAQHTLQTAADMSPVVFRRQQQLAQVAVLNHDLAAAEAACQQTLDIAKYTWHRSPTHYAALLRVQLARGDNGNAVRTLANLKHDYRYNEEGEWLAGVMDSQLQAKNGNADKARELLEAAGERFKQLAPKLDQESQLEYARACYQQGRDGQGNAVMEYLVRNHHDDEDMLEHFGDMFEEIGLSQAGRQLIAQNVKSVLELNNQAVREAQSGQFDAAIERFVKALDEMPQNVQIMLNLINAVLAYVSQNGWHESHMRRAYELLGKVRDTAPTNNKFQKILQSWRLLVDKMDKPQWAL | failed
11 | MTTTASQEAFLQAFHAEYPAVTAEAFGRGHAPDGRSSYEILCDRVAGSMRVLDLGCGDGLLLEFLARRSGRQLAGVDLSPHSLALARRRPALSEAKLEEGRAQELPFADDSFDACVSHMALMLMSEIEQVASEVARVLSPGGVLACVVGGGAVGGEAYERFLALLRCTIEETPASQRIPALGDKRTRSREGLDEVLGPAGFTAVDWETVPIDLSAPGEQVWAAVSSLYDLGPLDRATLDRLREAFFAEVRDMTTSEGHVPCAFKIHLATARLR | failed
12 | MRHPYVFPACVAGALLVAGCAPKQTDEETVERAFQDVNVVDETNLSEVMLTVTDPNEAISYYQRTLKSDPDRLDLRRGLATSFVRAKRFTEAASAWEKVTELKDSTHEDSVNYADALIRSGDWDTAEKVLDTVPPTYETFKRYRLEAMMADANKEWRKADSFYETAIGLTTTPAGAFNNWGYSKLTRGDFSGAEKLFGQAIRQDPTLFTAKNNLVLARSAQRKYTLPVVPMTQSERAQLLHTMALSAVRQGDIQTSKSLLRDAIDTHPQHFDAAVRALEALERSG | failed
13 | ADPFASITHLVDSAMVNKTDSIDREKTSDEPKPIEADESFDDFIYNFASDDALQRQRVVFPLPYYNGERASKIDRKYWKHDDLFAKQSYYTLLFDREEDMDLVGDTSLTSVQVEWIFVKKRMVKKYYFERIKGAWMLEAINLRPIEENENEDFVEFFGHFATDSIFQSRRIRQPLVFVTTDPDDDFSILETTLDLNQWFAFKPALPADKLSNINYGQQNDDNASHKILALKGIGNGFSNILYFQRKDSGWELYKFEDTSI | not failed
14 | MAEAPPVSGTFKFNTDAAEFIPQERKTSGLNCGTQRRLDSSRIGRRNYSSSPPCHLPRHIPYEDISAVHQHSYASGSKPKSPQGFFQSSNKSLKNHGLQNQPWQKARNEKHQNRNKKAQGLSEQTSDTSSLESVARSESGTNPREHSPSESEKEVVIADPRGAKPKKAAQLTYNYGRGPKAKGRLRSEWGNRMSPKSEDENTRPVAISHTDSSDASCRKPVVDPCVCRRNEQRRYPQKRPPWEVEGARPRPGRNPPKQESQRHINAGPKTNMSPIPKDNLRERPTKSACDTGNLAVVSKSSRRVNQEKTAVRRQDPQVLSPFPRGKQNHMLKNVETHTGSLIEQLTTEKYECMVCCELVQVTAPVWSCQSCFHVFHLNCIKKWARSPASHADGQSGWRCPACQNVSAHVPNTYTCFCGKVKNPEWSRNEIPHSCGEVCRKKQPGQDCPHSCNLLCHPGPCPPCPAFTTKTCECGRTRHTVRCGQPVSVHCSNACENILNCGQHHCAELCHGGQCQPCRIILNQVCYCGSTSRDVLCGTDVGKSDGFGDFSCLKICGKDLKCGSHTCSQVCHPQPCQPCPRLPHLVRYCPCGQTPLSQLLEHGSNARKTCMDPVPSCGKVCGKPLACGSSDFIHTCEKLCHEGDCGPCSRTSVISCRCSFRTKELPCTSLKSEDATFMCDKRCNKKRLCGRHKCNEICCVDKEHKCPLICGRKLRCGLHRCEEPCHRGNCQTCWQASFDELTCHCGASVIYPPVPCGTRPPECTQTCARIHECDHPVYHSCHSEEKCPPCTFLTQKWCMGKHEELTIKKLWTFKETLDF | not failed
15 | MARTRSADYENIRDTIIERAAAMFARQGYSETSIGDIARACECSKSRLYHYFDSKEAVLRDMLTTHVDSLLERCRQVLYGSNEPKTRFLQIVKLFLEIYATSRDRHVVMLTCLDALPEDQRKALIAKQRELIAYVRDALLQLRPDMAANRTLAHVDTMLFFGMINWTYTWYKADGSVSPDALAERTVQLFLDGYLNLLSA | not failed
16 | MSQQQKQYDIHWLTGQFFDSSKESRYRDSIKARVRFESRLALPLVSVVVAMFGITDYNLLGLTREFYWLLTMRIAVVSSCLVLAFAIGRWGGYSRNAWLHSLPLWILATGIILIVPLRPESISTQITAVVVAIMAFYLLIPNLLTVAALASLYLTVGFLSAAAVYAGIPSENVLRVSLLLIMANIVGYCALLRIEFLQRKQFALLQDERDQNRDLLKEIKHRKSLEAQLRMVAERDALTGLDSRSHFMKRAEALLQRAQLEKTPFCLFMIDVDHFKRINDTWGHTRGDLILTKIAEVCEQSLRPTDVIGRFGGEEFVVGLPHTSPSEAQTIAERLKENVEALPLTAELSELCLSVTIGIAAAHGEEDDLDVLITRADNMLYEGKREGRNRVVMFGEGMDS | failed
17 | MRLFIVQAMFTEYRPTHGYDEYFCREQSAPRADLEPLLSSLGAMGLAELNRSHASASNLLRRLGATFRLNGSGLHGGERILPFDPLPRLIHRQEWSVLERGLVQRLEAIDQFLADVYGPQRILNDGVIPREDVESSQGWRPQMQDIAVPLNRWCHISGLDLIRDGDGTWRVLEDNLRCPSGVAYFLENRRVMKRLFPSLFQGRTVQPIDDYPSHLLRTLQDLAPWSDAPRVVLLTPGVFNSAYFEHSYLAQQMGIALVEGRDLICEDGRVWMRSTAGREPVDVIYRRIDDDFLDPNVFRRDSMLGVPGLIDAMRSGRVAIANAPGSGVADDKLIYAYVPAMIRYYLNEEPIIDNVPTYLCSRDDDRRYVLEHLNELVVKSVAEAGGYGMLIGPHASSEEIESFAVKIKAHPRNFIAQPTLQLSTVPSLSEGELYPCHVDLRPYVLRGKSDWVSPGGLTRVALKRGSLVVNSSQGGGCKDTWVVSDSAVTAGNQELVPC | failed
18 | MPVDLQALYPRLIHLMLDTVFVVDRDNQIVFVSDACKTLLGYEACELIGTPITRYMHPDDLAATRASIMRVMNGQPHYDFCNRYLRKDGSVVHILWAACWSEEAQARIGVARDVTAQRKAEDELRFLAHHDPLTRLANRAMFNERLDTALAAARRHNRRLALLFLDINDFKQINDNHGHSVGDRVLCTLARRLERCVGAAGTVARMGGDEFTVLLPDCPSPEAIATHVQHILAVMAEPLDAEFAGIDAPSCSIGVARFPEDGNDADMLLRHADGHMYRIKRQRAATG | failed
